The values below come from article PMC7014971.

In this experiment the target is full-length human BRAF, wild type (insect cell-produced) (human) (UniProt P15056). The experiment in a line: SEC-MALS.
UniProt P15056, sequence (P15056 whole entry): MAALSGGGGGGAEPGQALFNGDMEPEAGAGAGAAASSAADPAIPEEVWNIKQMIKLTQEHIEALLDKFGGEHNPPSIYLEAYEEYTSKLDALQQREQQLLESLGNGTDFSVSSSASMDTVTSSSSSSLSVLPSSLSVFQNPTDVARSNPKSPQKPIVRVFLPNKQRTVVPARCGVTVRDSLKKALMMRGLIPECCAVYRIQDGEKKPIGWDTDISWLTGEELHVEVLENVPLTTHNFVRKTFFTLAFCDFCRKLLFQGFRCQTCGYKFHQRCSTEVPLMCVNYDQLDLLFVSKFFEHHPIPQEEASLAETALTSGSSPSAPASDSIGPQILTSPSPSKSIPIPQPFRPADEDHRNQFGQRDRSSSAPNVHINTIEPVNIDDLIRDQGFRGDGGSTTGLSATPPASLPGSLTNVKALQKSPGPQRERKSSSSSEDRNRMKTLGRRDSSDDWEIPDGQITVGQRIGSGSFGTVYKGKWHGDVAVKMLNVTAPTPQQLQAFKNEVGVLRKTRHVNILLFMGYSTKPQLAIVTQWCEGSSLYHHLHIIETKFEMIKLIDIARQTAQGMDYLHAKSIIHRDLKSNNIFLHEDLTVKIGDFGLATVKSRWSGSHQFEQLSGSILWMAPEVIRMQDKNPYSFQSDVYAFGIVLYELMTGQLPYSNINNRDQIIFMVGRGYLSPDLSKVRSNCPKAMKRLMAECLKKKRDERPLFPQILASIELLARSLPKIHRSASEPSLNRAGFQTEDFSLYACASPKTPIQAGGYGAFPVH

Take “insect cell-derived 14-3-3ε,ζ dimer (complex)”: the stoichiometry N (14-3-3 dimer per BRAF) turned out to be 1.
